Laboratory results taken from patent US20040132662A1.

Biological target: Human endothelial cells (ECV304)
Experiment: inhibition of endothelial cell adhesion to pepsinized collagen type IV by soluble monomer

Row | percent inhibition of cell adhesion | Substance
1 | 50% | recombinant type IV collagen NCl (α2) monomer (from UniProt P08572)
2 | 50% | recombinant human type IV collagen NCl (α1) monomer (from UniProt P02462)
